The source of these data is US20260116965A1 (COHERENT BIOPHARMA SUZHOU, published 2026).

This assay deals with T1, Transient receptor potential cation channel subfamily V member 6 (TRPV6) protein (human, UniProt Q9H1D0 1-765).
T1 construct: Calcium channel; also called human TRPV6 protein
T1 sequence: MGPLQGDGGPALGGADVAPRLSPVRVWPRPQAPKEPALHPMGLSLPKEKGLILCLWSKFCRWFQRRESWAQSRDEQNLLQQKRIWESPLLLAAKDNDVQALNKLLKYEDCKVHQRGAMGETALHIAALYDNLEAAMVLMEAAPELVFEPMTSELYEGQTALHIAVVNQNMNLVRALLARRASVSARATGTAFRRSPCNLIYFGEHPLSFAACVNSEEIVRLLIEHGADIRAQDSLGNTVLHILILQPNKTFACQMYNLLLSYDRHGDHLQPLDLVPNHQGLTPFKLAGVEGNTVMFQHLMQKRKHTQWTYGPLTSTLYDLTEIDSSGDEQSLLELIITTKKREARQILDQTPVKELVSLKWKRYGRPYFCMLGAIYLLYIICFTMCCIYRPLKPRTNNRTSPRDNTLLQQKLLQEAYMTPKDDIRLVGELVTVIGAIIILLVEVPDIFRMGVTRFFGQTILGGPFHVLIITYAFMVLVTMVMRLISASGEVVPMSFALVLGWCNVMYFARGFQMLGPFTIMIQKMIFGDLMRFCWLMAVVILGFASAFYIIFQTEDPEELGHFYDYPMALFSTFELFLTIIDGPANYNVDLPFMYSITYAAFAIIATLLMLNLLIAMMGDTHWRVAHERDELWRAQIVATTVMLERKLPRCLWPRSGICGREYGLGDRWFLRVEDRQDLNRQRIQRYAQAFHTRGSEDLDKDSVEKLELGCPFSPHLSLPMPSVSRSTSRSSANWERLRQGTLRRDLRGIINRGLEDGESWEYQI
The experiment in a line: IHC on tissue slices.

B1: CB-Anti-0002 antibody (antibody, IgG1, V domains shown)
VH: EVKLEESGGGLVQPGGSMKLSCVASGFTFSYYWMNWVRQSPEKGLEWVAEIRLKSHNYATHYAESVKGRFTISRDDSKSSVYLQMNNLRSEDTGIYYCARLAYDGERYYYALDYWGQGTSVTVSS
VL: DIVMSQSPSSLAVSVGEKFTMSCKSSQSLLYSNNQKNYLAWYQQKPGQSPKLLIYWASTRESGVPDRFTGSGYGTDFTLTISSVKAEDLAVYYCQQYYSYPFTFGSGTKLEIK
notes: also called antibody of hybridoma cell line 16CT 4.1.1.2; 16CT4.1.1.2
As to B1, the binding result was “binds”.

B2: CB-Anti-0001 antibody (antibody, IgG1, V domains shown)
VH: QVQVQQPGAELVKPGTSVKLSCKASGYTFTSYWMHWVKQRPGQGLEWIGEIDPSDGYTNYNQKFRGKATLSVDKSSTTAYMQLSSLTSEDSAVYYCGWAGDFWGQGTTLTVSS
VL: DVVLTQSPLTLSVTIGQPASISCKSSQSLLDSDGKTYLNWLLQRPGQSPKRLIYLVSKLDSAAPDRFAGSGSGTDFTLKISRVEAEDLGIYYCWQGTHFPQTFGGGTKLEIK
notes: also called antibody of hybridoma cell line 12CT 9.5.1; 12CT9.5.1
B2: the binding result is given as “binds”.
